The results in this text go back to paper PMC9497064, “Model of the SARS-CoV-2 Virus for Development of a DNA-Modified, Surface-Enhanced Raman Spectroscopy Sensor with a Novel Hybrid Plasmonic Platform in Sandwich Mode”.

Data set [1] addresses T1, RBD on Ag nanoparticles (RBD NP) (SARS-CoV-2 (Wuhan strain), UniProt P0DTC2 319-541). Briefly: SERS sandwich; BLI ([…]; BLI ([…], room temperature; […].
For data set [2], the target named is T1, RBD on Ag nanoparticles (RBD NP). Briefly: BLI; BLI ([…]; BLI ([…], room temperature; […]. Background: In BLI a coated tip is dipped into the sample, and binding shifts an interference pattern.

B1: Found-SH (ssDNA)
DNA: CACCGCTTTTGCCTTTTGGGGACGGATATAGGGAAACACGATAGAATCCGAACAGCACC
Consider B1, for which the binding result in data set [1] is recorded as “binds”.

B2: RBD-1C (biotinylated) (ssDNA)
DNA: CAGCACCGACCTTGTGCTTTGGGAGTGCTGGTCCAAGGGCGTTAATGGACA
With B2, the binding result in data set [2] is “binds”.

B3: RBD-1C-Cy3 (ssDNA)
DNA: B2 DNA
As for B3, the binding result in data set [1] is reported as “binds”.
